Two molecules from US20220089640A1 (published 2022) can be followed below.

Test [1] addresses T1, biotinylated PCSK9 (UniProt Q8NBP7 31-692, limits assumed, biotinylated (site not stated)).
T1 construct: also called europium-labeled PCSK9
Put plainly: given in the description of the Alexa FRET Standard assay; method not stated.

Test [2] deals with T1, biotinylated PCSK9. The experiment in a line: given in the description of the Alexa FRET Plus assay; method not stated.

Numbered stars: 1 amine (or outer) side, 2 acyl side, 3 side chain; on linkers, the order of the positions; unused ones are H or OH. Bridge positions count the residues as written; N and C are the ends. Square brackets hold non-standard residues; d marks the D form. Tyr(OMe) = COc1ccc(C[C@H](N[*:1])C(=O)[*:2])cc1; Trp(5-F) = N[C@@H](Cc1c[nH]c2ccc(F)cc12)C(=O)O; mXylylene = c1cc(C[*:1])cc(C[*:2])c1; Mpa = O=C(O)CCS

T1 sequence (Q8NBP7 31-692 limits assumed): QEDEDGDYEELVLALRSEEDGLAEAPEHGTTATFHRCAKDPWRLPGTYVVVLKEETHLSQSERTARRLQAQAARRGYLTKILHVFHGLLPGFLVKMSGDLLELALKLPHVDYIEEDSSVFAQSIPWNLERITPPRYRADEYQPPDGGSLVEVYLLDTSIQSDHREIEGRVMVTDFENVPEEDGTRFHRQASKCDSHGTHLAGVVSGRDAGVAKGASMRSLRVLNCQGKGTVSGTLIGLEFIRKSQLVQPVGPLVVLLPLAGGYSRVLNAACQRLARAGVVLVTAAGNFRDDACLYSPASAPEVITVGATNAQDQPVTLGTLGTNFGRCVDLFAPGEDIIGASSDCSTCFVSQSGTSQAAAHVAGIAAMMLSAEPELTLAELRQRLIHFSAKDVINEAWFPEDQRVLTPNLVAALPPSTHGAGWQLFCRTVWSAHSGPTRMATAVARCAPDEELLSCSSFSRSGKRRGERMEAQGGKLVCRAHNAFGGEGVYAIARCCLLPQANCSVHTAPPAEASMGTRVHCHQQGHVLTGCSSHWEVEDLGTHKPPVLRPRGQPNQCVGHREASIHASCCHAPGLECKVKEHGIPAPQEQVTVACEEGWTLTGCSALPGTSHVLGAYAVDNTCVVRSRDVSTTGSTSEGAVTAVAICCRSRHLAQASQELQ

B1: Reagent A (peptide)
peptide: [Mpa]K(ALEXAFLUOR 647)G[Trp(5-F)][Trp(5-F)]DHY[2‑methylproline]C-NH2
modifications: linker N-10 via mXylylene
notes: also called AlexaFluor647 (AF) tagged cyclic peptide; AF cyclic peptide
Molecule B1 displayed a Kd with biotinylated PCSK9 [1] of 83 nM.

B2: Reagent B (peptide)
peptide: [Mpa]K(ALEXAFLUOR 647)[dA][Trp(5-F)][Trp(5-F)]DH[Tyr(OMe)][2‑methylproline]C-NH2
modifications: linker N-10 via mXylylene
notes: as for B1
Take B2: in the test with biotinylated PCSK9 [2], the Kd is 35 nM.
